target: T1, recombinant human IL-23R/Fc chimera (R&D Systems) (human, UniProt Q5VWK5 24-355); test: competition ELISA vs IL-23
T1 construct: Bought; also called rhIL23RFc
T1 sequence (looked up): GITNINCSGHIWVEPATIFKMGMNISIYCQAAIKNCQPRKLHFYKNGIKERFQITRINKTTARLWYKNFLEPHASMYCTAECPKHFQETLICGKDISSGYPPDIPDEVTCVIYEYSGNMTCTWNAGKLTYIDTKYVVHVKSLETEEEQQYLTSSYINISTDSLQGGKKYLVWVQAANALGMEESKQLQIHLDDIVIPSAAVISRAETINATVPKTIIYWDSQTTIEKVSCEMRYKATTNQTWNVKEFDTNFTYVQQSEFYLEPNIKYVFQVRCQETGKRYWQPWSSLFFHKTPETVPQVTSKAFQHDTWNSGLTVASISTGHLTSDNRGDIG
Description: Assays were performed generally as follows. Individual wells in Immulon HB2 plates were incubated overnight at 4° C. with 100 μL PBS containing 100 ng of an anti-human IgG Fc (R&D MAB 110 clone 97924). Plates were washed five times with PBS/0.05% Tween 20, and wells were incubated for 1.5 h at RT with 100 μL each of PBS containing 50 ng of recombinant human IL-23R/Fc. […] Competitor was included at a final concentration of 1 μg/mL. After incubation, plates were washed as described and wells were incubated for 40 min at RT with 100 μL each of PBS containing a 1:5000 dilution of streptavidin-HRP conjugate (Pierce catalog no. 21130). After washing, wells were incubated with 100 μL each of TMB (BioFX Lab catalog no. TMBH-1000-0) for up to 30 min at RT. Reactions were stopped with an equal volume of 0.2 M sulfuric acid.

Binder | Ratio IC50 to 056-53.H4E IC50
105-08-1A7 ATRIMER complex (designed binder, ATRIMER complex: homotrimer of three copies of this chain, joined by the tetranectin coiled coil, not shown: C-terminal tag: Myc/His (pANA4) or HA-StrepII (pANA10)) EPPTQKPKKIVNAKKDVVNTKMFEELKSRLDTLAQEVALLKEQQALQTVCLKGTKVHMKCFLAFTQTKTFHEASEDCISRGGTLSTPQTGSENDALYEYLRQSVGNEAEIWLGLNGSVRTNTWVDMTGARIAYKNWETEITAQPDGGFGYFGENCAVLSGAANGKWFDKRCRDQLPYICQFGIV | 2.9
105-08-1A10 ATRIMER complex (designed binder, not shown: C-terminal tag: His/Myc (pANA4) or HA-StrepII (pANA10)) EPPTQKPKKIVNAKKDVVNTKMFEELKSRLDTLAQEVALLKEQQALQTVCLKGTKVHMKCFLAFTQTKTFHEASEDCISRGGTLSTPQTGSENDALYEYLRQSVGNEAEIWLGLNGSSITDTWVDMTGARIAYKNWETEITAQPDGGWGYFGENCAVLSGAANGKWFDKRCRDQLPYICQFGIV | 4.3

target: T1, recombinant human IL-23R/Fc chimera …; test: SPR
Description: A Biacore 3000 biosensor (GE Healthcare) was used to evaluate the interaction of human IL-23R and receptor binders. Immobilization of an anti-human IgG Fc antibody (GE Healthcare) to the CM5 chip (GE Healthcare) was performed using standard amine coupling chemistry, and this modified surface was used to capture a recombinant human IL-23R/Fc fusion protein (R&D Systems). A low-density receptor surface, less than 200 RU, was used for all of the analyses. ATRIMER™ polypeptide complex dilutions (1-500 nM) were injected over the IL-23R surface at 30 μl/min and kinetic constants were derived from the sensorgram data using the Biaevaluation software (version 3.1, GE Healthcare). Data collection was 3 minutes for the association and 5 minutes for dissociation. The anti-human IgG surface was regenerated with a 30s pulse of 3M magnesium chloride. All sensorgrams were double-referenced against an activated and blocked flow-cell as well as buffer injections.

Binder | Ka | Kd | koff | kon
001-69.4G8 ATRIMER complex, mammalian-cell produced (designed binder, not shown: small tags and cut ends, Homotrimer of this chain (ATRIMER complex); produced in HEK293 cells, glycosylation possible., Mammalian-cell produced material; also called 4G8 m; 4G8 TN m) EPPTQKPKKIVNAKKDVVNTKMFEELKSRLDTLAQEVALLKEQQALQTVCLKGTKVHMKCFLAFTQTKTFHEASEDCISRGGTLSTPQTGSENDALYEYLRQSVGNEAEIWLGLNGSRRSGVWVDMTGARIAYKNWETEITAQPDGGFGVFGENCAVLSGAANGKWFDKRCRDQLPYICQFGIV | 2.1e+08 M⁻¹ | 4.76 nM | 0.000751 s⁻¹ | 158000 M⁻¹ s⁻¹
001-87.A4A ATRIMER complex (designed binder, not shown: C-terminal tag: His/Myc (pANA4) or HA-StrepII (pANA10)) EPPTQKPKKIVNAKKDVVNTKMFEELKSRLDTLAQEVALLKEQQALQTVCLKGTKVHMKCFLAFTQTKTFHEASEDCISRGGTLSTPQTGSENDALYEYLRQSVGNEAEIWLGLNWTLAKNLWVDMTGARIAYKNWETEITAQPDGGLFGRGENCAVLSGAANGKWFDKRCRDQLPYICQFGIV | 1.24e+08 M⁻¹ | 8.08 nM | 0.000409 s⁻¹ | 50600 M⁻¹ s⁻¹
001-87.A5F ATRIMER complex (designed binder, Homotrimer of this chain (ATRIMER complex)., also called Atrimer A5F; not shown: A possible extra N-terminal Ser from the ompA junction is left out) EPPTQKPKKIVNAKKDVVNTKMFEELKSRLDTLAQEVALLKEQQALQTVCLKGTKVHMKCFLAFTQTKTFHEASEDCISRGGTLSTPQTGSENDALYEYLRQSVGNEAEIWLGLNGSVRSATWVDMTGARIAYKNWETEITAQPDGGFGYFGENCAVLSGAANGKWFDKRCRDQLPYICQFGIV | 2.19e+08 M⁻¹ | 4.57 nM | 0.0007 s⁻¹ | 153000 M⁻¹ s⁻¹
001-89.C3C ATRIMER complex (designed binder, not shown: C-terminal tag: His/Myc (pANA4) or HA-StrepII (pANA10)) EPPTQKPKKIVNAKKDVVNTKMFEELKSRLDTLAQEVALLKEQQALQTVCLKGTKVHMKCFLAFTQTKTFHEASEDCISRGGTLSTPQTGSENDALYEYLRQSVGNEAEIWLGLNANRRRTMWVDMTGARIAYKNWETEITAQPDGGMGVWGENCAVLSGAANGKWFDKRCRDQLPYICQFGIV | 1.2e+08 M⁻¹ | 8.34 nM | 0.000483 s⁻¹ | 57900 M⁻¹ s⁻¹
056-41.B9B ATRIMER complex (designed binder, not shown: C-terminal tag: His/Myc (pANA4) or HA-StrepII (pANA10)) EPPTQKPKKIVNAKKDVVNTKMFEELKSRLDTLAQEVALLKEQQALQTVCLKGTKVHMKCFLAFTQTKTFHEASEDCISRGGTLSTPQTGSENDALYEYLRQSVGNEAEIWLGLNAPPDLGLWVDMTGARIAYKNWETEITAQPDGGWGVWGENCAVLSGAANGKWFDKRCRDQLPYICQFGIV | 1.94e+08 M⁻¹ | 5.15 nM | 0.000478 s⁻¹ | 92800 M⁻¹ s⁻¹
056-41.B12F ATRIMER complex (designed binder, Homotrimer of this chain (ATRIMER complex)., not shown: A possible extra N-terminal Ser from the ompA junction is left out) EPPTQKPKKIVNAKKDVVNTKMFEELKSRLDTLAQEVALLKEQQALQTVCLKGTKVHMKCFLAFTQTKTFHEASEDCISRGGTLSTPQTGSENDALYEYLRQSVGNEAEIWLGLNGSVRSATWVDMTGARIAYKNWETEITAQPDGGYGVFGENCAVLSGAANGKWFDKRCRDQLPYICQFGIV | 4.47e+08 M⁻¹ | 2.24 nM | 0.000545 s⁻¹ | 244000 M⁻¹ s⁻¹
001-69.4D4 monomeric CTLD (designed binder, C-terminal tag not specified) ALQTVCLKGTKVHMKCFLAFTQTKTFHEASEDCISRGGTLSTPQTGSENDALYEYLRQSVGNEAEIWLGLNGSVRGRTWVDMTGARIAYKNWETEITAQPDGGIGVWGENCAVLSGAANGKWFDKRCRDQLPYICQFGIV | 6.76e+06 M⁻¹ | 148 nM | 0.00419 s⁻¹ | 28300 M⁻¹ s⁻¹
001-69.3C2 monomeric CTLD (designed binder, C-terminal tag not specified) ALQTVCLKGTKVHMKCFLAFTQTKTFHEASEDCISRGGTLSTPQTGSENDALYEYLRQSVGNEAEIWLGLNTNVTRTLWVDMTGARIAYKNWETEITAQPDGGLGVWGENCAVLSGAANGKWFDKRCRDQLPYICQFGIV | 5.39e+06 M⁻¹ | 186 nM | 0.00741 s⁻¹ | 39900 M⁻¹ s⁻¹
001-69.4E5 monomeric CTLD (designed binder, C-terminal tag not specified; not shown: Also the vector's N-terminal AGGGS after the pelB signal) ALQTVCLKGTKVHMKCFLAFTQTKTFHEASEDCISRGGTLSTPQTGSENDALYEYLRQSVGNEAEIWLGLNGNPSGSVWVDMTGARIAYKNWETEITAQPDGGYGVWGENCAVLSGAANGKWFDKRCRDQLPYICQFGIV | 2.82e+06 M⁻¹ | 355 nM | 0.0161 s⁻¹ | 45400 M⁻¹ s⁻¹
001-69.4F5 monomeric CTLD (designed binder, C-terminal tag not specified; not shown: Also the vector's N-terminal AGGGS after the pelB signal) ALQTVCLKGTKVHMKCFLAFTQTKTFHEASEDCISRGGTLSTPQTGSENDALYEYLRQSVGNEAEIWLGLNVLGWRREWVDMTGARIAYKNWETEITAQPDGGLVMPMENCAVLSGAANGKWFDKRCRDQLPYICQFGIV | 4.12e+06 M⁻¹ | 243 nM | 0.00571 s⁻¹ | 23500 M⁻¹ s⁻¹
001-69.4G8 monomeric CTLD (designed binder, C-terminal tag not specified; not shown: C-terminal tag: 6xHis (pANA1), HA-His (pANA3) or HA-StrepII (pANA12)) ALQTVCLKGTKVHMKCFLAFTQTKTFHEASEDCISRGGTLSTPQTGSENDALYEYLRQSVGNEAEIWLGLNGSRRSGVWVDMTGARIAYKNWETEITAQPDGGFGVFGENCAVLSGAANGKWFDKRCRDQLPYICQFGIV | 1.83e+07 M⁻¹ | 54 nM | 0.00783 s⁻¹ | 143000 M⁻¹ s⁻¹
001-87.A4A monomeric CTLD (designed binder, C-terminal tag not specified) ALQTVCLKGTKVHMKCFLAFTQTKTFHEASEDCISRGGTLSTPQTGSENDALYEYLRQSVGNEAEIWLGLNWTLAKNLWVDMTGARIAYKNWETEITAQPDGGLFGRGENCAVLSGAANGKWFDKRCRDQLPYICQFGIV | 5.18e+06 M⁻¹ | 193 nM | 0.0229 s⁻¹ | 118000 M⁻¹ s⁻¹
001-87.A5F monomeric CTLD (designed binder, not shown: small tags and cut ends, C-terminal tag not specified) ALQTVCLKGTKVHMKCFLAFTQTKTFHEASEDCISRGGTLSTPQTGSENDALYEYLRQSVGNEAEIWLGLNGSVRSATWVDMTGARIAYKNWETEITAQPDGGFGYFGENCAVLSGAANGKWFDKRCRDQLPYICQFGIV | 4.11e+07 M⁻¹ | 24.3 nM | 0.00415 s⁻¹ | 170000 M⁻¹ s⁻¹
001-87.A8E monomeric CTLD (designed binder, C-terminal tag not specified) ALQTVCLKGTKVHMKCFLAFTQTKTFHEASEDCISRGGTLSTPQTGSENDALYEYLRQSVGNEAEIWLGLNANPAQDLWVDMTGARIAYKNWETEITAQPDGGFGVWGENCAVLSGAANGKWFDKRCRDQLPYICQFGIV | 7.09e+06 M⁻¹ | 141 nM | 0.00757 s⁻¹ | 53700 M⁻¹ s⁻¹
001-87.A9E monomeric CTLD (designed binder, C-terminal tag not specified) ALQTVCLKGTKVHMKCFLAFTQTKTFHEASEDCISRGGTLSTPQTGSENDALYEYLRQSVGNEAEIWLGLNGSALTNTWVDMTGARIAYKNWETEITAQPDGGLGYWGENCAVLSGAANGKWFDKRCRDQLPYICQFGIV | 9.29e+06 M⁻¹ | 108 nM | 0.0041 s⁻¹ | 38100 M⁻¹ s⁻¹
001-89.C3C monomeric CTLD (designed binder, C-terminal tag not specified) ALQTVCLKGTKVHMKCFLAFTQTKTFHEASEDCISRGGTLSTPQTGSENDALYEYLRQSVGNEAEIWLGLNANRRRTMWVDMTGARIAYKNWETEITAQPDGGMGVWGENCAVLSGAANGKWFDKRCRDQLPYICQFGIV | 5.34e+06 M⁻¹ | 187 nM | 0.0158 s⁻¹ | 84500 M⁻¹ s⁻¹
001-89.C12E monomeric CTLD (designed binder, C-terminal tag not specified) ALQTVCLKGTKVHMKCFLAFTQTKTFHEASEDCISRGGTLSTPQTGSENDALYEYLRQSVGNEAEIWLGLNWTKRTALWVDMTGARIAYKNWETEITAQPDGGMFGMGENCAVLSGAANGKWFDKRCRDQLPYICQFGIV | 5.62e+06 M⁻¹ | 178 nM | 0.0074 s⁻¹ | 41600 M⁻¹ s⁻¹
001-89.C7F monomeric CTLD (designed binder) ALQTVCLKGTKVHMKCFLAFTQTKTFHEASEDCISRGGTLSTPQTGSENDALYEYLRQSVGNEAEIWLGLNGSLLTGLWVDMTGARIAYKNWETEITAQPDGGYGAWGENCAVLSGAANGKWFDKRCRDQLPYICQFGIV | 6.75e+06 M⁻¹ | 148 nM | 0.00531 s⁻¹ | 35800 M⁻¹ s⁻¹

From patent publication US20110086806A1 (published 2011)
